Reference: publication PMC3245945 (Nucleic Acids Research, 2011)
Substitutions are numbered along the chain they refer to. In names and notes the source's numbering stands.

B1: WHY2, Solanum tuberosum Whirly protein located in the mitochondria (natural protein, Solanum tuberosum (potato))
chain: ADAGKREGRVFAPYSVFKGKAALSAEPRLPTFNRLDSGGVKLNRRGVIMLTFWPSVGERKYDWEKRQLFALSATEVGSLISMGTRDSSEFFHDPSMLSSNAGQVRKSLSIKPNADGSGYFISLSVVNNNLKTNDRFTVPVTTAEFAVMRTAFSFALPHIMGWDRFTNRP
B2: WHY2 K67A (natural protein, Solanum tuberosum (potato))
chain: B1 chain with K20A

Experiments:
SEC = target: the molecule itself; experiment: SEC
atomic force microscopy = target: the molecule itself; experiment: atomic force microscopy
crystal structure = target: the molecule itself; experiment: crystal structure

Row | Protein | stoichiometry N (SEC) | stoichiometry N (atomic force microscopy) | stoichiometry N (crystal structure)
1 | B1 | 4 | 24 | 
2 | B2 | 4 |  | 24
